For two molecules, Kd, koff and kon results are on record in publication PMC5643561, “Zdhhc13-dependent Drp1 S-palmitoylation impacts brain bioenergetics, anxiety, coordination and motor skills” (Scientific Reports, 2017).

This assay addresses T1, Drp1, recombinant, purified (Novus Biologicals # H00010059-P01) (UniProt O00429 1-736).
T1 construct: Drp1 (dynamin-related protein 1); The methods call Drp1 GST-tagged and immobilised; The results describe it as untagged analyte at 56, 167 and 500 nM; also called GST-tagged recombinant, purified Drp1; recombinant Drp1; source: bought: Novus Biologicals, # H00010059-P01
As to the kind of experiment: BLI; Octet RED384 (ForteBio), anti-GST biosensor. Methods: GST-Drp1 immobilised, WT or L203X Zdhhc13 in solution. Results: GST-Zdhhc13 captured, Drp1 at 56, 167 and 500 nM. The following applies: both partners purified. For orientation: Biolayer interferometry detects binding as a change in optical thickness at a sensor tip.

T1 sequence (O00429 whole entry): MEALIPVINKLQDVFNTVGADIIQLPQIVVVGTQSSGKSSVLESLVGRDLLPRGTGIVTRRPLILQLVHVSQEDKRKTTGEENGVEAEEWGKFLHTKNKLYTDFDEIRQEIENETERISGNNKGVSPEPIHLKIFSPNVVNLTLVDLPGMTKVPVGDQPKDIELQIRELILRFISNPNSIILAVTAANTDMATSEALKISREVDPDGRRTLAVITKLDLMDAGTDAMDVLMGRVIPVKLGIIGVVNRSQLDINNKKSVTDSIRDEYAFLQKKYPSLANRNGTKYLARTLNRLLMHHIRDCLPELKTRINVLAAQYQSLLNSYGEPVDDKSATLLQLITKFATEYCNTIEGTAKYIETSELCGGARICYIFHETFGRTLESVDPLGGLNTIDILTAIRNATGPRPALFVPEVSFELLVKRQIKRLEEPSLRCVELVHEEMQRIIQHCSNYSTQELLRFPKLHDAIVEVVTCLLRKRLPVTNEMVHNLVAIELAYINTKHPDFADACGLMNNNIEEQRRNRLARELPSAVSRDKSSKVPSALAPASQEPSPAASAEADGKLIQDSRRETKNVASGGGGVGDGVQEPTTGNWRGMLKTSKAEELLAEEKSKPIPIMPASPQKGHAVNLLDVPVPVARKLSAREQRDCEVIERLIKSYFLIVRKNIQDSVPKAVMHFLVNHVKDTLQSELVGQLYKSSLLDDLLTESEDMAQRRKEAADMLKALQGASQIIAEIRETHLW

B1: Zdhhc13, wild type, recombinant (mouse sequence) (enzyme, UniProt Q9CWU2 1-622, looked up)
chain: MEGPGLGSQCRNHSHGSHVPGFGRHGICVHENKELAKAKEILPLIEDSSNCDIVKATQYGIFERCKELVEAGYDVRQPDRENVSLLHWAAINNRLELVKFYISKGAVIDQLGGDLNSTPLHWAIRQGHLPMVILLLQHGADPTLIDGEGFSSIHLAVLFQHMPIIAYLISKGQSVNMTDVNGQTPLMLSAYKVIGPEPTGFLLKFNPSLSVVDKTHQNTPLHWAVAAGNVSAVDKLLEAGSSLDIRNAKGETPLDMALQSKNQLISHMLRTEAKMRANKQFRLWRWLHKCELFLLLILSMITLWAVGYILDFNSDSWLLKGCLLVALFFLTSLFPRFLVGYKNLVYLPTVFLLSSIFWIFMTWFILFFPDTAGSPLYFAFIFSIMAFLYFFYKTWATDPGFTKASEEERKVNIVTLAETGSLDFRTFCTSCLIRKPLRSLHCHVCNSCVARFDQHCFWTGRCIGFGNHHHYIFFLLSLSMVCDWIIYGSFVYWSNHCATTFKEDGLWTYLNQIVACSPWVLYIFMLAAFHFSWSTFLLINQLFQIAFLGLTSHERISLLKQSRHMKQTLSLRKTPYNLGFTQNLADFFQCGCFGLVKPCIIDWTSQYTMVFHPAKEKVLRSV
notes: Zdhhc13, mouse, UniProtKB Q9CWU2; also called WT Zdhhc13; full length GST-tagged Zdhhc13; source: purified recombinant (culture supernatant)
By Kd is commonly meant the free concentration of one partner at which half of the binding sites on the other are occupied at equilibrium, for simple one-to-one binding. As a reminder, the koff is the rate constant with which the complex falls apart. In general, kon refers to the rate constant with which the complex forms. B1: the Kd was 560 nM, the off-rate constant (koff) was determined as 0.046 s⁻¹ and the kon came out at 82000 M⁻¹ s⁻¹.

B2: Zdhhc13 L203X, truncated form, recombinant (mouse sequence) (domain or fragment, UniProt Q9CWU2 1-202, looked up)
chain: MEGPGLGSQCRNHSHGSHVPGFGRHGICVHENKELAKAKEILPLIEDSSNCDIVKATQYGIFERCKELVEAGYDVRQPDRENVSLLHWAAINNRLELVKFYISKGAVIDQLGGDLNSTPLHWAIRQGHLPMVILLLQHGADPTLIDGEGFSSIHLAVLFQHMPIIAYLISKGQSVNMTDVNGQTPLMLSAYKVIGPEPTGFL
notes: Zdhhc13, mouse, UniProtKB Q9CWU2; naturally occurring nonsense mutation L203X (premature stop codon at codon 203), so the chain ends at residue 202; also called L203X Zdhhc13; truncated Zdhhc13; source: purified recombinant (culture eluate)
With B2, the dissociation constant (Kd) came to 88 nM, the koff stood at 0.0018 s⁻¹ and the kon was 21000 M⁻¹ s⁻¹.
